# Laboratory results: patent publication US20120329854A1, “Methods and Compounds for the Diagnosis and Treatment for Cancer” (UNIVERSITÄTSKLINIKUM FREIBURG, priority 2009, published 2012)
# Legend:
# KLK2 and FKBP5 genes = experiment: Quantitative RT-PCR of androgen-regulated genes in LNCaP cells; assay type: cell-based, human; conditions: miRNA-mediated knockdown (FIG. 3j)
# Description: Quantitative RT-PCR and statistical analysis were performed as described. The primers for KLK2 and FKBP5 were described previously^6, 11.
# LNCaP cells = experiment: Cell proliferation assay (BrdU ELISA), R1881-induced proliferation; assay type: cell-based, human; conditions: LNCaP cells infected with lentivirus, 1×10^−9 M R1881, versus miRNA control (FIG. 4e)
# Description: Experiments were performed as described^2. pLenti6-miRNA-control and pLenti6-miRNA-PKCβI were used to produce recombinant lentiviruses to infect LNCaP cells as described^15. The infected cells were cultured for 72 hours in medium containing 10% double-stripped FCS. 1×10^4 cells were plated in a 96-well plate in the presence or absence of 1×10^−9 M R1881. The cell proliferation Elisa BrdU Colorimetric Assay (Roche) was performed according to the manufacturer's instructions. […] The experiments were performed in hexaplicate.
molecule,measurement,setting,value
"5′-TGCTGTTACGTAGGGATCTGACAGGCGTTTTGGCCACTGACTGACGCCTGTCATCCCTACGTAA-3′ (nucleic acid, expressed or natural sequence) DNA 1: TGCTGTTACGTAGGGATCTGACAGGCGTTTTGGCCACTGACTGACGCCTGTCATCCCTACGTAA DNA 2: CCTGTTACGTAGGGATGACAGGCGTCAGTCAGTGGCCAAAACGCCTGTCAGATCCCTACGTAAC",expression of the androgen-regulated KLK2 and FKBP5 genes,KLK2 and FKBP5 genes,reduces expression
same,R1881-induced cell proliferation,LNCaP cells,severely reduces
